# Measurements from patent US7563582 (Sanofi, dated 2009).
# T1: GST-zyxin(1-142) (UniProt Q15942 1-142)
# T1 construct: Expressed in E. coli; also called zyxin derivative; GST fusion protein with the N-terminus of zyxin; not shown: glutathione S-transferase
# T1 sequence (looked up): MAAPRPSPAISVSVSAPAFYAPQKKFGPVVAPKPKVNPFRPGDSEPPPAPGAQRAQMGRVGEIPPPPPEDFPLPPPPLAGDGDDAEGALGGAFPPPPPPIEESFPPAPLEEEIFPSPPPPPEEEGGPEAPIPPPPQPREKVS
# B1: recombinant human VASP protein with complete amino acid sequence obtained from insect cells (other, UniProt P50552 2-380, looked up)
# chain: SETVICSSRATVMLYDDGNKRWLPAGTGPQAFSRVQIYHNPTANSFRVVGRKMQPDQQVVINCAIVRGVKYNQATPNFHQWRDARQVWGLNFGSKEDAAQFAAGMASALEALEGGGPPPPPALPTWSVPNGPSPEEVEQQKRQQPGPSEHIERRVSNAGGPPAPPAGGPPPPPGPPPPPGPPPPPGLPPSGVPAAAHGAGGGPPPAPPLPAAQGPGGGGAGAPGLAAAIAGAKLRKVSKQEEASGGPTAPKAESGRSGGGGLMEEMNAMLARRRKATQVGEKTPKDESANQEEPEARVPAQSESVRRPWEKNSTTLPRMKSSSSVTTSETQPCTPSSSDYSDLQRVKQELLEEVKKELQKVKEEIIEAFVQELRKRGSP
# notes: mature; also called baculo VASP; vasodilator-stimulated phosphoprotein
# Biological target: T1, GST-zyxin(1-142)
# Experiment: solid-phase assay (DELFIA) in 384-well plates, 20 µl per well, GST-zyxin(1-142) coated, VASP as ligand
# Experimental: In the solid-phase assay, a binding partner (VASP or zyxin) was immobilized on the surface of a microtiter plate (MTP) (=coating). The unsaturated binding sites on the surface of the plastic were blocked, and the surface was then incubated with the respective other binding partners. After the incubation, excess unattached protein was removed in a washing step. Using suitable antibodies, it was now possible to detect and quantify the specifically bound protein. Here, it was possible to improve the signal-noise (S/N) ratio considerably by using lanthanide chelates as fluorescent labels for the antibodies and the measurement of the time-resolved fluorescence.
# The volume per well used depended on the selected MTP format (50 µl or 100 µl for 96-well plates, 20 µl for 384-well plates).
binder,measurement,value
B1,S/N ratio,~100
